This note sets out measurements from publication PMC7901536 (Arteriosclerosis, thrombosis, and vascular biology, 2021).

Test [1] has as its target dimeric GPVI (GPVI extracellular domain fused by IgG-Fc) (UniProt Q9HCN6). As to the kind of experiment: MST; CRP-XL titrated into FITC-labelled GPVI monomer or dimer; read-out is the fall of the initial fluorescence (quenching); 1:1 model; hypothetical KD on the monomeric-equivalent molar concentration of CRP-XL.
Test [2] has as its target monomeric GPVI (His-tagged GPVI extracellular domain) (UniProt Q9HCN6). The description is as above.
Test [3] concerns the target recombinant fibrinogen αC fragment, C-terminal globular domain (Aα 368-610). As to the kind of experiment: SPR; biotinylated αC fragments Aα 221-391 (80 RU), 368-610 (120 RU), 221-610 (180 RU) on SA chip; dimeric GPVI as analyte up to 20 μM; 25 °C; 1:1 Langmuir.
The target in test [4] is recombinant fibrinogen αC fragment, full-length (Aα 221-610). The description is as above.
In test [5] the target is non-polymerising (NP) fibrin (UniProt P02671). As to the kind of experiment: SPR; NP-fibrinogen immobilised, then converted to fibrin with thrombin; GPVI dimer as analyte (additional SPR experiments in the supplemental methods).
Test [6] concerns the target recombinant non-polymerising (NP) fibrinogen (UniProt P02671). The test is described as above.
Test [7] concerns the target T1, dimeric GPVI (GPVI extracellular domain fused by IgG-Fc) (UniProt Q9HCN6 21-267, FITC label (in MST); biotin via NHS-LC-biotin (when immobilised in SPR)).
T1 sequence (looked up): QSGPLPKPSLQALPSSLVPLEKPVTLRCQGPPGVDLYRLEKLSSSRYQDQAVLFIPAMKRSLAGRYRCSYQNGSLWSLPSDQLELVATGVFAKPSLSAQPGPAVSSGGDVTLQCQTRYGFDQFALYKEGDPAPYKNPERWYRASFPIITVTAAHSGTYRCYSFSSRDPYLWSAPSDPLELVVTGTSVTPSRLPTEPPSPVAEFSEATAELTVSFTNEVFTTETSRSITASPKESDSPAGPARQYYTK
As to the kind of experiment: SPR; monomeric and dimeric GPVI immobilised as ligands; X-, D-, E-fragment or D-dimer as analytes up to 40 μM; 1:1 Langmuir. Particulars: both partners purified.

The target of test [8] is T1, dimeric GPVI (GPVI extracellular domain …). As to the kind of experiment: MST; fibrin(ogen) or fragments titrated into FITC-labelled GPVI monomer or dimer (10 μl of 50 nM mixed 1:1); 20 mM HEPES pH 7.5, 50 mM NaCl; 23 °C; 1:1 model. Particulars: both partners purified.
Test [9] deals with T2, dimeric GPVI (GPVI extracellular domain fused by IgG-Fc), Q9HCN6.
T2 chain: T1 sequence (looked up)
Briefly: SPR; monomeric and dimeric GPVI immobilised as ligands; X-, D-, E-fragment or D-dimer as analytes up to 40 μM; 1:1 Langmuir.

Test [10] concerns the target T2, dimeric GPVI (GPVI extracellular domain …). As to the kind of experiment: MST; fibrin(ogen) or fragments titrated into FITC-labelled GPVI monomer or dimer (10 μl of 50 nM mixed 1:1); 20 mM HEPES pH 7.5, 50 mM NaCl; 23 °C; 1:1 model.
The target of test [11] is T3, monomeric GPVI (His-tagged GPVI extracellular domain), Q9HCN6.
T3 chain: T1 sequence (looked up)
As to the kind of experiment: SPR; monomeric and dimeric GPVI immobilised as ligands; X-, D-, E-fragment or D-dimer as analytes up to 40 μM; 1:1 Langmuir.

“cross linked collagen-related peptide (CRP-XL)”: the results for the Kd in test [1] and in test [2] were 0.603 µM and 5 µM, respectively.

With “dimeric GPVI (GPVI extracellular domain fused by IgG-Fc) (from UniProt Q9HCN6 21-267) (Fc fusion)”, the Kd in test [3] was determined as 2.3 µM; in [4] it was 0.604 µM; in test [5] it was 0.086 µM; in test [6] it was 0.127 µM.

B1: fibrinogen E-fragment (domain or fragment)
chain 1: VVERHQSACKDSDWPFCSDEDWNYKCPSGCRMKGLIDEVNQDFTNRINKLKNSLFEYQK
chain 2: KVERKAPDAGGCLHADPDLGVLCPTGCQLQEALLQQERPIRNSVDELNNNVEAVSQTSSSSFQYMYLLK
chain 3: YVATRDNCCILDERFGSYCPTTCGIADFLSTYQTKVDKDLQSLEDILHQVENK
Regarding B1, the Kd in [7] was 51 µM; in [8], above 20 µM.

B2: fibrinogen D-fragment (domain or fragment)
chain 1: VSEDLRSRIEVLKRKVIEKVQHIQLLQKNVRAQLVDMKRLEVDIDIKIRSCRGSCSRALAREVDLKDYEDQQKQLEQVIAKDLLPSR
chain 2: DNENVVNEYSSELEKHQLYIDETVNSNIPTNLRVLRSILENLRSKIQKLESDVSAQMEYCRTPCTVSCNIPVVSGKECEEIIRKGGETSEMYLIQPDSSVKPYRVYCDMNTENGGWTVIQNRQDGSVDFGRKWDPYKQGFGNVATNTDGKNYCGLPGEYWLGNDKISQLTRMGPTELLIEMEDWKGDKVKAHYGGFTVQNEANKYQISVNKYRGTAGNALMDGASQLMGENRTMTIHNGMFFSTYDRDNDGWLTSDPRKQCSKEDGGGWWYNRCHAANPNGRYYWGGQYTWDMAKHGTDDGVVWMNWKGSWYSMRKMSMKIRPFFPQQ
chain 3: KMLEEIMKYEASILTHDSSIRYLQEIYNSNNQKIVNLKEKVAQLEAQCQEPCKDTVQIHDITGKDCQDIANKGAKQSGLYFIKPLKANQQFLVYCEIDGSGNGWTVFQKRLDGSVDFKKNWIQYKEGFGHLSPTGTTEFWLGNEKIHLISTQSAIPYALRVELEDWNGRTSTADYAMFKVGPEADKYRLTYAYFAGGDAGDAFDGFDFGDDPSDKFFTSHNGMQFSTWDNDNDKFEGNCAEQDGSGWWMNKCHAGHLNGVYYQGGTYSKASTPNGYDNGIIWATWKTRWYSMKKTTMKIIPFNRLTIGEGQQHHLGGAK
modifications: not checked
With B2, the results for the Kd in test [9] and in test [10] were 26 µM and above 20 µM, respectively.

B3: D-dimer (degradation product of FXIIIa cross-linked fibrin) (domain or fragment)
chain 1: B2 chain 1
chain 2: B2 chain 2
chain 3: B2 chain 3
modifications: cross-linked by FXIIIa (chain and residues not stated)
For B3, the Kd in [7] was 28 µM; in test [8] it was above 20 µM.

B4: fibrinogen X-fragment (domain or fragment)
chain 1: ADSGEGDFLAEGGGVRGPRVVERHQSACKDSDWPFCSDEDWNYKCPSGCRMKGLIDEVNQDFTNRINKLKNSLFEYQKNNKDSHSLTTNIMEILRGDFSSANNRDNTYNRVSEDLRSRIEVLKRKVIEKVQHIQLLQKNVRAQLVDMKRLEVDIDIKIRSCRGSCSRALAREVDLKDYEDQQKQLEQVIAKDLLPSRDRQHLPLIKMKPVPDLVPGNFK
chain 2: QGVNDNEEGFFSARGHRPLDKKREEAPSLRPAPPPISGGGYRARPAKAAATQKKVERKAPDAGGCLHADPDLGVLCPTGCQLQEALLQQERPIRNSVDELNNNVEAVSQTSSSSFQYMYLLKDLWQKRQKQVKDNENVVNEYSSELEKHQLYIDETVNSNIPTNLRVLRSILENLRSKIQKLESDVSAQMEYCRTPCTVSCNIPVVSGKECEEIIRKGGETSEMYLIQPDSSVKPYRVYCDMNTENGGWTVIQNRQDGSVDFGRKWDPYKQGFGNVATNTDGKNYCGLPGEYWLGNDKISQLTRMGPTELLIEMEDWKGDKVKAHYGGFTVQNEANKYQISVNKYRGTAGNALMDGASQLMGENRTMTIHNGMFFSTYDRDNDGWLTSDPRKQCSKEDGGGWWYNRCHAANPNGRYYWGGQYTWDMAKHGTDDGVVWMNWKGSWYSMRKMSMKIRPFFPQQ
chain 3: YVATRDNCCILDERFGSYCPTTCGIADFLSTYQTKVDKDLQSLEDILHQVENKTSEVKQLIKAIQLTYNPDESSKPNMIDAATLKSRKMLEEIMKYEASILTHDSSIRYLQEIYNSNNQKIVNLKEKVAQLEAQCQEPCKDTVQIHDITGKDCQDIANKGAKQSGLYFIKPLKANQQFLVYCEIDGSGNGWTVFQKRLDGSVDFKKNWIQYKEGFGHLSPTGTTEFWLGNEKIHLISTQSAIPYALRVELEDWNGRTSTADYAMFKVGPEADKYRLTYAYFAGGDAGDAFDGFDFGDDPSDKFFTSHNGMQFSTWDNDNDKFEGNCAEQDGSGWWMNKCHAGHLNGVYYQGGTYSKASTPNGYDNGIIWATWKTRWYSMKKTTMKIIPFNRLTIGEGQQHHLGGAK
modifications: not checked
As for B4, the Kd in [11] is above 1000 µM; in test [9], 9 µM; in test [10], above 2 µM.
